This note sets out measurements from article PMC10666116, “Tunable force transduction through the Escherichia coli cell envelope” (Proceedings of the National Academy of Sciences of the …, 2023).

This series deals with the molecule itself. Nature of the series: cryo-EM structure; single-particle cryo-EM of purified TolQR complex at 7.5 mg/mL in SEC buffer (50 mM Tris/HCl pH 7.5, 300 mM NaCl, 2 mM EDTA, 0.01% LMNG); rigid-body refinement of a published model.

One may read the stoichiometry N as a count of units in the complex or per binding partner.

B1: TolQ (natural protein, E. coli, UniProt P0ABU9 1-230, looked up)
chain: MTDMNILDLFLKASLLVKLIMLILIGFSIASWAIIIQRTRILNAAAREAEAFEDKFWSGIELSRLYQESQGKRDNLTGSEQIFYSGFKEFVRLHRANSHAPEAVVEGASRAMRISMNRELENLETHIPFLGTVGSISPYIGLFGTVWGIMHAFIALGAVKQATLQMVAPGIAEALIATAIGLFAAIPAVMAYNRLNQRVNKLELNYDNFMEEFTAILHRQAFTVSESNKG
notes: TolQ, E. coli, inner-membrane motor protein of the Tol system; expressed from pCEP13 (pT12-tolQ-tolR); Pentamer in the TolQR complex; also called TolQ pentamer; motor subunit of TolQR
Regarding B1, the “stoichiometry N” value was determined as 5.
